Reference: US20240376185A1 (SMIVET B V, published 2024)
Where two headings read alike, the source gives them in different places.

Assays:
[1] = molecular target: T1, human serum albumin (human, UniProt P02768 25-609); assay: ELISA, coated albumin
T1 construct: mature; also called human Alb

[2] = molecular target: T2, chicken ovalbumin (chicken, UniProt P01012 2-386); assay: ELISA, coated albumin
T2 construct: mature; also called chicken Alb
T2 sequence (looked up): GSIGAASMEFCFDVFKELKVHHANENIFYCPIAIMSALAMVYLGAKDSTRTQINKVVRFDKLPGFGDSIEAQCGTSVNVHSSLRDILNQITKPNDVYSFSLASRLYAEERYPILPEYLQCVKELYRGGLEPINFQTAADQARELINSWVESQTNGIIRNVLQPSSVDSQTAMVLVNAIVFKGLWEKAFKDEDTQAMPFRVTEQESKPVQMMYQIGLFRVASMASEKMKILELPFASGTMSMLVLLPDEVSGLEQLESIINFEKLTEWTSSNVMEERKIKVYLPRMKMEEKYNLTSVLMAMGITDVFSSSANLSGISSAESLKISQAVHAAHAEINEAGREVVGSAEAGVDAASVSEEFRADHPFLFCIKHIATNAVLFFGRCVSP

[3] = molecular target: T3, sheep serum albumin (sheep, UniProt P14639 25-607); assay: ELISA, coated albumin
T3 construct: mature; also called sheep Alb

[4] = molecular target: T4, bovine serum albumin (bovine, UniProt P02769 25-607); assay: ELISA, coated albumin
T4 construct: mature; also called bovine Alb

[5] = molecular target: T5, Tetanus neurotoxin (TeNT), authentic tetanus holotoxin (Clostridium tetani, UniProt P04958 2-1315)
[6] = molecular target: T6, Dog albumin (dog, UniProt P49822 25-608); assay: BLI (Octet Red96), biotinylated SDA on SA sensor, albumin as analyte
T6 construct: also called Canine albumin; Canine Alb

[7] = molecular target: T7, Horse albumin (horse, UniProt P35747 25-607); assay: BLI (Octet Red96), biotinylated albumin on SA sensor, SDA as analyte
T7 construct: also called Equine albumin; Equine Alb

[8] = molecular target: Human albumin (human, UniProt P02768 25-609); assay: as above
[9] = molecular target: T5, Tetanus neurotoxin (TeNT), authentic …; remark: listed apart in the source
[10] = molecular target: T1, human serum albumin; assay: ELISA, E. coli supernatant
[11] = molecular target: T8, dog serum albumin (dog, UniProt P49822 25-608); assay: ELISA, E. coli supernatant
T8 construct: mature; also called dog Alb; Canine albumin

[12] = molecular target: T1, human serum albumin; assay: ELISA, coated albumin, E. coli supernatant; note: test concentration or dose not given here
[13] = molecular target: T8, dog serum albumin; assay: ELISA, coated albumin, E. coli supernatant; note: test concentration or dose not given here
[14] = molecular target: T9, horse serum albumin (horse, UniProt P35747 25-607); assay: ELISA, coated albumin, E. coli supernatant; note: test concentration or dose not given here
T9 construct: mature; also called horse Alb; Equine albumin
T9 sequence (P35747 25-607): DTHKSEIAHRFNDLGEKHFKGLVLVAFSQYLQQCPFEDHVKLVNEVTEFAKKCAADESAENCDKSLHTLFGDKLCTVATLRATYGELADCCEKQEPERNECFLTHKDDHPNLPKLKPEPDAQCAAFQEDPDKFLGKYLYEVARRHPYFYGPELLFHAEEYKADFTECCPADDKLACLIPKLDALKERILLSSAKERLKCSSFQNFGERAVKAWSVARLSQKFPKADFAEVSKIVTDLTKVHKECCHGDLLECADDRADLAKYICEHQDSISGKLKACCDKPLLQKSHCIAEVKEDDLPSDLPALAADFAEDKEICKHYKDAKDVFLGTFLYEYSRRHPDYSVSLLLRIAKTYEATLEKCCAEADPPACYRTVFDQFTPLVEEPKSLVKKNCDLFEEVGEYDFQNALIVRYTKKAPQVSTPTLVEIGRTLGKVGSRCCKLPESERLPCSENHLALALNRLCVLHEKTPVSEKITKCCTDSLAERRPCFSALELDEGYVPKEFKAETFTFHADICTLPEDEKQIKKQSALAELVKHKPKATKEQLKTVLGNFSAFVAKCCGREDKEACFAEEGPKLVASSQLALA

T5 sequence (P04958 2-457 limits assumed, chain 1 of 2): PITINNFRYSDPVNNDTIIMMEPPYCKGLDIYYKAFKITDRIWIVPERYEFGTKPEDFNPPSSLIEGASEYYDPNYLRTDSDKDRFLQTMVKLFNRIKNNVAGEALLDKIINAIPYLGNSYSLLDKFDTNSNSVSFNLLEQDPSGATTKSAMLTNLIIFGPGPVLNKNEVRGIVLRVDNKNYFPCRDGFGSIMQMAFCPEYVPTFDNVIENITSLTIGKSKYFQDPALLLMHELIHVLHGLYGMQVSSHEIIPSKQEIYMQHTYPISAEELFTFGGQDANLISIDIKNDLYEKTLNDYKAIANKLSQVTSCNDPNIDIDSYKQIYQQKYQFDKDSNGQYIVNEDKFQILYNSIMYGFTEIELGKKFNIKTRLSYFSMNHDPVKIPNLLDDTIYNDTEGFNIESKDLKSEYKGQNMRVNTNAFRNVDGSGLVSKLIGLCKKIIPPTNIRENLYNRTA
T5 sequence (P04958 458-1315 limits assumed, chain 2 of 2): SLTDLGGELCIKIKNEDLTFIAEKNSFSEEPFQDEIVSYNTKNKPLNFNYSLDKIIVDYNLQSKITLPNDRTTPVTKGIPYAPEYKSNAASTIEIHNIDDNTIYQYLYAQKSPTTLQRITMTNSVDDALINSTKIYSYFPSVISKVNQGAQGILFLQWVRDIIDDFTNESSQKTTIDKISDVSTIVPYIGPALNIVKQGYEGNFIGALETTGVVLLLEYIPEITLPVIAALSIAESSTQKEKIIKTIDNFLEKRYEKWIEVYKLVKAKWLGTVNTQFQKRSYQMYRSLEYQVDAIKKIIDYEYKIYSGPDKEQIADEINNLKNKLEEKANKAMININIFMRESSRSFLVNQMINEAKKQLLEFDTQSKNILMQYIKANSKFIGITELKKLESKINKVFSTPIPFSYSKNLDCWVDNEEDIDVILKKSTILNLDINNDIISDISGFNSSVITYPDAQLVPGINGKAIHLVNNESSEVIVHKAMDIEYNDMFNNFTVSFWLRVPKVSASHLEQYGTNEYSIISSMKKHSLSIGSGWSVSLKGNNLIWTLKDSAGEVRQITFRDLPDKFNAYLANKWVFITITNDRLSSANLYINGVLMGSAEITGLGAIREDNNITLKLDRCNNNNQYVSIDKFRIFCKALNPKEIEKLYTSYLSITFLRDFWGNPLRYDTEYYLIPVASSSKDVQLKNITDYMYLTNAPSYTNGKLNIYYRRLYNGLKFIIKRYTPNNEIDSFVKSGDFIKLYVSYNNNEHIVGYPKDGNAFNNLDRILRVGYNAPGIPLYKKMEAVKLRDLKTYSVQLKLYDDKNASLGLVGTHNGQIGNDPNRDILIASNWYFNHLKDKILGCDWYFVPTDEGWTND
T8 sequence (P49822 25-608): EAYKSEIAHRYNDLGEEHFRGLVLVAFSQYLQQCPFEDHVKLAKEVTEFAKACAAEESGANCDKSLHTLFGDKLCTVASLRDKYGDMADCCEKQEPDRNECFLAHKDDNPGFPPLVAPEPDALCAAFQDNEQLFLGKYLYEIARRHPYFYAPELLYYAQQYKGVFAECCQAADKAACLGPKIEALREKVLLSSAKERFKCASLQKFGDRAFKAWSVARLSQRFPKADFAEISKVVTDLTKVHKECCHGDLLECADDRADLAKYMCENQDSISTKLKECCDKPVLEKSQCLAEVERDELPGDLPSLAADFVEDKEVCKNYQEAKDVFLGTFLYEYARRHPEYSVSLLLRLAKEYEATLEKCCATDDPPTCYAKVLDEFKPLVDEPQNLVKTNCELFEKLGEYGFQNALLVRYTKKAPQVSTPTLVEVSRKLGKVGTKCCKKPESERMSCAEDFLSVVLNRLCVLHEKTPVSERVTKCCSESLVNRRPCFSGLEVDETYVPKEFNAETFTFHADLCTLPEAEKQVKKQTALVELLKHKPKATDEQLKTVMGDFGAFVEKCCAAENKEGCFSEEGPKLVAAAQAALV
T6 sequence (P49822 25-608 limits assumed): as the sequence (P49822 25-608) above
T7 sequence (P35747 25-607 limits assumed): as the sequence (P35747 25-607) above
T3 sequence (P14639 25-607): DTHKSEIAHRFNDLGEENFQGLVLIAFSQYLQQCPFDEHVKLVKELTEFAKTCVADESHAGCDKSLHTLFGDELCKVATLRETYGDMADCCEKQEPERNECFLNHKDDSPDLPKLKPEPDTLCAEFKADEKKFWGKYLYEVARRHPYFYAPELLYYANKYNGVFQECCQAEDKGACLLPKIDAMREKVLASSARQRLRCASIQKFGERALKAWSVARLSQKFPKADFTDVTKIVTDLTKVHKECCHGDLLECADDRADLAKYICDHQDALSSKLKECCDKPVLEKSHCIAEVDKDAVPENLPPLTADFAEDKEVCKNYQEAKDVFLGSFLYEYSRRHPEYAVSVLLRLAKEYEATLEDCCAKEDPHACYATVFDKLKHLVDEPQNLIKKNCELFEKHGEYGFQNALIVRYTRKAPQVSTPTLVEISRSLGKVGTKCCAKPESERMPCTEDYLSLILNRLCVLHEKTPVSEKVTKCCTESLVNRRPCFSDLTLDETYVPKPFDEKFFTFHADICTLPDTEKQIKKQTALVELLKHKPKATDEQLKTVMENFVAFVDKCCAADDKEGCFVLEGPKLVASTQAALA
T4 sequence (P02769 25-607): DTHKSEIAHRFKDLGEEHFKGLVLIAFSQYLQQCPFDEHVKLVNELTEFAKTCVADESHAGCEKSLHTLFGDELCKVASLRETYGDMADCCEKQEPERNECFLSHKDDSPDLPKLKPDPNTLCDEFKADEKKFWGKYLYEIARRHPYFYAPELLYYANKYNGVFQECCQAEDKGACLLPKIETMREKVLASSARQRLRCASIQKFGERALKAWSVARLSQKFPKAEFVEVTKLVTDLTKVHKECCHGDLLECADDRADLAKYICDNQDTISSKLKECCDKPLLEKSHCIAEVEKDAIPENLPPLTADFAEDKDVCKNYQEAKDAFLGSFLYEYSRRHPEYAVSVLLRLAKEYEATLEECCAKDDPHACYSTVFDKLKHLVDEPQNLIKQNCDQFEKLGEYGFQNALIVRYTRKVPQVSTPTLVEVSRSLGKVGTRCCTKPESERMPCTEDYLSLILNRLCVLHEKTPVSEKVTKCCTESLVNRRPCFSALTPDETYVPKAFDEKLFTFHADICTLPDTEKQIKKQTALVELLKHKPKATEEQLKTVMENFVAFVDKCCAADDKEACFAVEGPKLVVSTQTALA

B1: SVA06L (VHH)
VHH: QVQLQESGGRLVQAEDSLRLSCAASGRTFVSYDMGWFRQAPGKEREFVAAINWRGYTTDYVDSVKGRFFISRDIAKSTVYLQMNNLKPEDTAVYYCAARQMSGSSRYSPPGRVGYDFWGQGTQVTVSS
notes: yeast-produced
Q: Does B1 bind [1]?
A: no binding (tested: 1 µg/ml)

Q: Does B1 bind [2]?
A: no binding (tested: 1 µg/ml)

Q: Does B1 bind [3]?
A: no binding (tested: 1 µg/ml)

Q: Does B1 bind [4]?
A: no binding (tested: 1 µg/ml)

B2: SVT15-3FW4M-GS3-SVT06-GS2-SVG13M5-H6 (bispecific antibody)
chain: QVQLQESGGGLVQTGGSLRLSCRASGRAFANYHFGWFRQAPGKDREFVASISWKGGSTYYANFALGRFTSSVDRAESSVYLQMSGLTPEDTATYYCAAHDGGDWNYHTGMDYWGQGTQVTVSSGGGGSGGGGSGGGGSQVQLQESGGGSVQAGGSLRLSCTASELSYDDYTIAWFRRAAGEGRVEDGEGVASITKSYDRAYDNKINYGHSVKGRFTISRDNAKNTVYLQMTDLLPSDTAVYYCALDITPPGGVGASLTEGFLFDYWGQGTQVTVSSGGGGSGGGSEVQLVESGGGLVQPGGSLRLSCEASGFTFDDYGMSWVRQAPGKGLEWVSSLTPNGGSTYYADSVKGRFTISRDNAKNTLYLQMNSLKPEDTALYYCAKNSYYGAMDYRGQGTQVTVSSHHHHHH
Q: For B2, which Kd [5] is on record?
A: < 0.00041 nM

Q: What about the koff [5] of the same binder?
A: < 1.99e-07 s⁻¹

Q: And the kon [5]?
A: 484000 M⁻¹ s⁻¹

Q: Does B2 bind [6]?
A: no binding (tested: 16-500 nM)

Q: Does B2 bind [7]?
A: no binding (tested: 100 nM)

Q: Does B2 bind [8]?
A: no binding (tested: 100 nM)

Q: What about the Kd [9] of the same binder?
A: 0.0229 nM

Q: What about the koff [9] of the same binder?
A: 2.73e-05 s⁻¹

Q: What about the kon [9] of the same binder?
A: 1.19e+06 M⁻¹ s⁻¹

B3: SVA07 (VHH, not shown: large carriers)
VHH: QVQLQQSGGGLVQAGDSLRLSCAASGRAFNYYTMGWFRQAPGKEREFVAKIYWDGGSTIYADSVKGRFTISIDNAKNTVYLQMNSLKPEDTAVYYCAADPSFYPFRPKYWGQGTQVTVSS
Q: Does B3 bind [10]?
A: no binding

Q: Does B3 bind [11]?
A: no binding

Q: What about the “absorbance at 450 nm” value [12] of the same binder?
A: 0.062 A450

Q: And the “absorbance at 450 nm” value [13]?
A: 0.059 A450

Q: And the “absorbance at 450 nm” value [14]?
A: 1.46 A450
